Where two headings read alike, the source gives them in different places.
What was measured:
CCL4_HUMAN = molecular target: T1, CCL4_HUMAN (human, UniProt P13236 24-92); experiment: yeast surface display FACS
T1 sequence: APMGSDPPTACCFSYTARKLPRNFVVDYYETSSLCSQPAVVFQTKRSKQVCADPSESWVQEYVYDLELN

CCL5_HUMAN [1] = molecular target: T2, CCL5_HUMAN (human, UniProt P13501 24-91); experiment: yeast surface display FACS
T2 sequence: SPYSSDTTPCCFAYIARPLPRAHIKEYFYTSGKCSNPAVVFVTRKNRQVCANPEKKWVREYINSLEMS

CCL11_HUMAN [2] = molecular target: T3, CCL11_HUMAN (human, UniProt P51671 24-97); experiment: yeast surface display FACS
T3 sequence (P51671 24-97 limits assumed): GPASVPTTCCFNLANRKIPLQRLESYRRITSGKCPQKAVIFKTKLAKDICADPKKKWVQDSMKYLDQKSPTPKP

CCL17_HUMAN = molecular target: T4, CCL17_HUMAN (human, UniProt Q92583 24-94); experiment: yeast surface display FACS
T4 sequence: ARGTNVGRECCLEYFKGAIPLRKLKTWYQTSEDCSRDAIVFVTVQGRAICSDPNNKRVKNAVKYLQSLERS

CCL19_HUMAN = molecular target: T5, CCL19_HUMAN (human, UniProt Q99731 22-98); experiment: yeast surface display FACS
T5 sequence: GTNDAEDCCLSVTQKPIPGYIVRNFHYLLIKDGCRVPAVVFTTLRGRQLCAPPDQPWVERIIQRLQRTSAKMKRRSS

CCL1_HUMAN [3] = molecular target: T6, CCL1_HUMAN (human, UniProt P22362 24-96); experiment: yeast surface display FACS
T6 sequence: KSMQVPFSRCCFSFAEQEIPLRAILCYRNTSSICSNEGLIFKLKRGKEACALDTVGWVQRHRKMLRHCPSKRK

CCL3_HUMAN [4] = molecular target: T7, CCL3_HUMAN (human, UniProt P10147 24-92); experiment: yeast surface display FACS
T7 sequence: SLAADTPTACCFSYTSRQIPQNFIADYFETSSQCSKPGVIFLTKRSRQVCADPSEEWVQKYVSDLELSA

CCL5_HUMAN [5] = molecular target: T2, CCL5_HUMAN; experiment: yeast surface display FACS; remark: listed apart in the source
CCL11_HUMAN [6] = molecular target: T3, CCL11_HUMAN; experiment: yeast surface display FACS; remark: listed apart in the source
CCL18_HUMAN [7] = molecular target: T8, CCL18_HUMAN (human, UniProt P55774 21-89); experiment: yeast surface display FACS
T8 sequence: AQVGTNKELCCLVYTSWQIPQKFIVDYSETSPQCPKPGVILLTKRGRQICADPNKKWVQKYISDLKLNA

CXCL12_HUMAN = CXCL12_HUMAN (human, UniProt P48061 22-89); experiment: yeast surface display FACS
Chain of CXCL12_HUMAN (P48061 22-89 limits assumed): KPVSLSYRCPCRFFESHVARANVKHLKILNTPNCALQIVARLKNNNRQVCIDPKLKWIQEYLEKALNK

CCL1_HUMAN [8] = molecular target: T6, CCL1_HUMAN; experiment: yeast surface display FACS; remark: listed apart in the source
CCL18_HUMAN [9] = molecular target: T8, CCL18_HUMAN; experiment: yeast surface display FACS; remark: listed apart in the source
CCL25_HUMAN = molecular target: T9, CCL25_HUMAN (human, UniProt O15444 24-150); experiment: yeast surface display FACS
T9 sequence: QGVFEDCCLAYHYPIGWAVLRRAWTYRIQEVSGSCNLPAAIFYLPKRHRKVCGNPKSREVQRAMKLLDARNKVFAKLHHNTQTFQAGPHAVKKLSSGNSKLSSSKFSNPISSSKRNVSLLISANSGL

CCL15_HUMAN = molecular target: T10, CCL15_HUMAN (human, UniProt Q16663 22-113); experiment: yeast surface display FACS
T10 sequence: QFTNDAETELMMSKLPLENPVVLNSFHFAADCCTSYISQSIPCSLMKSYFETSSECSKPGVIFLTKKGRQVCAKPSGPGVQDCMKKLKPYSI

CCL8_HUMAN [10] = molecular target: T11, CCL8_HUMAN (human, UniProt P80075 24-99); experiment: BLI, dose titration
T11 sequence (looked up): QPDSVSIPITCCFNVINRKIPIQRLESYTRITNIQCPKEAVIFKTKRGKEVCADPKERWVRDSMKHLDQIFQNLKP

CCL8_HUMAN [11] = molecular target: T11, CCL8_HUMAN; experiment: cell-based or functional assay
CCL8_HUMAN [12] = molecular target: T11, CCL8_HUMAN; experiment: cell-based or functional assay; remark: listed apart in the source
CCL3_HUMAN [13] = molecular target: T7, CCL3_HUMAN; experiment: cell-based or functional assay
CCL2-647 = CCL2-647 (human, UniProt P13500 24-99); experiment: flow cytometry, inhibition of CCL2-647 binding to THP-1 cells
Chain of CCL2-647 (P13500 24-99 limits assumed): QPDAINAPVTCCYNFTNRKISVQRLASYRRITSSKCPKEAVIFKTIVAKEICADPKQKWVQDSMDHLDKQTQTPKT

CCL8-647 = molecular target: T12, CCL8-647 (human, UniProt P80075 24-99); experiment: flow cytometry, inhibition of CCL8-647 binding to THP-1 cells
T12 sequence (looked up): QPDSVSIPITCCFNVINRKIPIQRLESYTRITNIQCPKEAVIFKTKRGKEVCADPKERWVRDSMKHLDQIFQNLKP

CXCL1_HUMAN = molecular target: T13, CXCL1_HUMAN (human, UniProt P09341 35-107); experiment: BLI
T13 sequence: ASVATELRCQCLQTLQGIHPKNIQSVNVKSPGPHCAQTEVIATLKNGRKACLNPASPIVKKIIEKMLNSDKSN

CXCL3_HUMAN = molecular target: T14, CXCL3_HUMAN (human, UniProt P19876 35-107); experiment: BLI
T14 sequence: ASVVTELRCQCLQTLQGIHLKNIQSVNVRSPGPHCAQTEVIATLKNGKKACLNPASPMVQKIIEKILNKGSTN

CCL8_HUMAN [14] = molecular target: T11, CCL8_HUMAN; experiment: yeast surface display FACS

B1: P1014_AMBCA (other)
chain: DIIGGIPGCGDPTTTSAPEVPPKHFAVRTDKDGCTLMIIGTWMTTEDHNRLPPDIGEKRAPYGRVQLPASCKKNCHGKVKNLPNGTPCREVFGDPRRGRKHIKNGCTVGKCQSGLCVTDKRIISCYIPPNITDPIPTHGPWAE
B1: binds (CCL4_HUMAN).

B2: P1005_AMBMA (other)
chain: EKDTPKNIPGCGDTGTTAAPPADNPKHFAVYTDKHGCTIKVIGTWMTKEDHSRLPVSLRRVRASSGRVMLPASCQKICNDTVKNFPEGTPCRLVTGDPIKGKNHIKDGCIRGYCSSGVCVSDKRNISCYVPPN
B2: binds (CCL5_HUMAN [1]); binds (CCL11_HUMAN [2]); binds (CCL17_HUMAN). B2: binds (CCL19_HUMAN); binds (CCL1_HUMAN [3]); binds (CCL3_HUMAN [4]).

B3: P1209_AMBPA (other)
chain: KTDTKNAAGELPPKVAIPGCEDPATTKAPLPDDPRYYGVTIDKDGCQRKVLGSSQRQQRQVQNGRKPGRKGRGRRPVFVDLKLTVDCKRKCNGTYSQLPDGEPCLVCDGEPYGRHRTIKGGCYQGNCSSGQCHRGERKVNCYIPKNITNNVLNSVNLAE
B3: binds (CCL5_HUMAN [5]); binds (CCL11_HUMAN [6]); binds (CCL18_HUMAN [7]). B3: binds (CXCL12_HUMAN); binds (CCL1_HUMAN [8]).

B4: P1011_AMBTR (other)
chain: EKDTPKNIPGCEDAGTTAAPPADNPKHYAVYTDKNGCTFKVIGTWMTKEDHRRLPVSLRRVRASSGRVKLPASCQKICKHSVKKFPEGTPCRLVTRDPIKGKNHIKNGCIRGYCSSGVCVSDNRSISCYVLPNNTELTSPSGSFAE
B4: binds (CCL5_HUMAN [1]); binds (CCL11_HUMAN [2]); binds (CCL17_HUMAN). B4: binds (CCL18_HUMAN [9]); binds (CCL25_HUMAN).

B5: P1006_AMBCA (other)
chain: DTIGGIPGCGDPATTSAPEDQPKHYAVRTDKNGCKVMVIGTWMTKEDHNLLPPYISKERAPSGKVQLPASCKKNCHGKLKNLPNGTPCREVFGDLRRRRKHIKDGCKVGKCQNGLCVSEERIISCYLPPNITDPRPTHGPLAE
B5: binds (CCL5_HUMAN [1]); binds (CCL15_HUMAN); binds (CCL19_HUMAN). B5: binds (CCL25_HUMAN).

B6: EVA1(P672 22-32) hybrid protein (designed binder)
chain: EDDEDYEDFFKPVTCYFLVAENKTGYPTIVACKQDCNGTTETAPNGTRCFSIGDEGLRRMTANLPYDCPLGQCSNGDCIPKETYEVCYRRNWRDKKN
For B6, the Kd (CCL8_HUMAN [10]) was 490 nM.

B7: P672_RHIPU (other)
chain: VCEVSEQEGVGEDNATEDEDYEDFFKPVTCYFANSTVGPLRPPNCTVVCTNNTAWWNDTKSDGGHCYSEYRPEKRTHSREIYNCTIGVCGNGTCIANHTYADCW
For B7, the “IC50, CCL8 induced THP-1 cell migration” value (CCL8_HUMAN [11]) was 3 nM, the “IC50, THP1 cell migration” value (CCL8_HUMAN [12]) was 2.37 nM and the “IC50, THP1 cell migration” value (CCL3_HUMAN [13]) was 5.74 nM. It also gave an IC50 (CCL2-647) of 21 nM and an IC50 (CCL8-647) of 21 nM.

B8: P943_IXORI (other)
chain: RSKQPTASQSSKNSIKAEFCDTNCTQGTNGAWSGCSEGCFCVHVGNNTKGRCMKLSSDYDYTTQ
In the case of B8, the Kd (CXCL1_HUMAN) is reported as 540 nM and the Kd (CXCL3_HUMAN) is reported as 270 nM.

B9: P698_RHISA (other)
chain: NEDDSSDYYDASPMNCSSMSVNSTMGWLSMNCTMSCNGTTFPLSNSTHCFHSYTNLTVQSRMETMTYNCSVGTCSNGTCVENGTTTTCW
B9: binds (CCL5_HUMAN [1]); binds (CCL8_HUMAN [14]).

Source: patent publication US20240034757A1 (OXFORD UNIVERSITY INNOVATION, published 2024)
